Results taken from patent publication US20230203142A1, “TREATMENT OF METABOLIC DISORDERS THROUGH THE TARGETING OF A NOVEL CIRCULATING HORMONE COMPLEX” (The President and Fellows of Harvard College, priority 2020, published 2023).

How the values were obtained:
[1] = system: diet-induced obese (DIO) mice; test: a-Ab treatment of diet-induced obese mice; type: in vivo, mouse
Protocol: Given the essential role for appropriate beta cell function and insulin secretion in the pathogenesis of diabetes, the pancreata of FABP4 deficient (FABP4^−/−) mice were examined for beta cell mass and insulin content. Animal care and experimental procedures were performed with approval from animal care committees of Harvard University. All mice were housed on a 12-hour light/dark cycle with ad libitum access to chow (PicoLab 5058 LabDiet) and water. FABP4−/− and WT mice were littermates obtained from heterozygous breeding. High fat diet (HFD) fed mice were provided ad libitum access to HFD (60% kcal from fat; Research Diets Inc., D12492i) for 14 weeks beginning at 4 weeks of age. Pancreata and isolated islets were obtained from 7-8-week-old male mice. Blood was collected every other week for 6 hour fasting plasma insulin and FABP4 levels. For acute FABP4 treatment, 10 μg of human recombinant FABP4 (produced in-house) or sterile PBS was injected intraperitoneally. Blood was collected from the tail vein at 0, 10, 20, 30, 60, 120, 240- and 360-minutes post injection for measurement of blood glucose, plasma insulin, and FABP4 levels.
(§1) For the immunohistochemistry, pancreata were dissected and fixed in 10% zinc buffered formalin for 24-48 hrs before being washed and stored in 70% ethanol. Samples were paraffin embedded, and sectioned in steps 250 μm apart. Immunostaining for insulin and glucagon was performed as described previously (Prentice et al., 2014; Rezania et al., 2014). Images of each section were acquired using Aperio Imagescope at 20× magnification. The beta- or alpha-cell area was calculated by using positive pixel count analysis (Aperio ImageScope). Islet number and size was determined by manually circling insulin positive clusters in the Aperio ImageScope software. Two blinded individuals independently performed manual analysis and insulitis scoring.
Antibodies were stored at 4° c. at a stock concentration of 10 mg/ml in PBS. WT diet-induced obese (DIO) male mice were treated twice weekly with 33 mg/kg bodyweight of a-Ab or control antibody (c-Ab) in a final volume of 150 μl, injected subcutaneously for 3 weeks after 12 weeks of high fat breeding, as described (see US20160319003, incorporated herein by reference, and Burak et al., 2015). […] Glucose tolerance test were performed as previously described (Liu, Y. et al. Cell Rep 14, 2889-2900). Briefly, both chow and high fat diet fed mice were evaluated simultaneously. Before intraperitoneal glucose tolerance tests, mice were fasted 16 hr. overnight, before injection of 0.75 g/kg body weight of glucose. Blood glucose was evaluated at 0, 15, 30, 45, 60, 90, and 120-min post-injection.
as §1, with “Pancreata were” for “For the immunohistochemistry, pancreata were”, “for insulin, glucagon, BrdU” for “for insulin”, “and Cleaved Caspase 3” for “and glucagon”

[2] = system: non-diabetic NOD mice; test: Immune phenotyping (FACS) of tissues of treated NOD mice; type: in vivo, mouse; details: mean
Protocol: To perform immune phenotyping, mice were euthanized with CO2 and cardiac perfusion performed with 40 ml of sterile PBS. Whole pancreas, pancreatic lymph nodes (PLN), inguinal lymph nodes (ILN), and spleen were harvested, diced into 1 mm pieces, placed in digestion buffer (RPMI 1640, lmg/ml Collagenase Type IV, 10 U/ml DNAsel, and 1% BSA), and incubated at 37° C. for 20 min shaking at 250 rpm. Pancreas samples were filtered through a 40 μm nylon strainer into a fresh 50 ml tube, and fresh media added up to 40 ml (RPMI 1640, 1% FBS, 1% Sodium Pyruvate, 1.56 ul β-mercaptoethanol). Tubes were then centrifuged at 1500 rpm for 10 min, supernatant removed, and cells resuspended in 2 ml fresh media. Resuspended cells were passed through a 40 μm nylon filter into a 15 ml round-bottomed polystyrene tube. For PLN, ILN, and spleen, digestion samples were filtered through a 40 μm nylon strainer into a 15 ml round bottom polystyrene tube, and lml of media was added. Spleen samples had supernatant removed, and lml ACK lysis buffer (Thermo Scientific A1049201) added for 2 min at room temperature. Samples were then centrifuged at 1500 rpm for 5 min, and resuspended in 1 ml media. All samples were centrifuged at 1500 rpm for 5 min, supernatant removed, and cells resuspended in FACS buffer (5% BSA in cold PBS; 0.5 ml for PLN and ILN, lml for pancreas and spleen). Staining and FACS analysis were performed as previously described (Engin et al., 2013).

[3] = molecular target: T1, recombinant NDPK (Homo sapiens, UniProt P15531); test: Recombinant kinase activity assay, NDPK (ADP-Glo/Kinase-Glo); type: biochemical
T1 construct: purchased Acro Biosystems NM1-H5147
Protocol: An on-bead kinase assay was developed to measure the activity of endogenous NDPK and ADK pulled down from serum using a-Ab or c-Ab conjugated beads. Both NDPK and ADK are bi-directional kinases that will produce ATP or ADP depending on the substrates provided (FIGS. 4B-C). Kinase activity assays were performed in 384-well plates in reaction buffer (PBS with 0.1% BSA, 0.01% F-127, 5 mM MgCl2). Experiments with recombinant proteins were performed at final concentrations of 40 μg/ml for ADK and FABP4, and 20 ug/ml for NDPK, and a reaction volume of 10 μl. Antibodies were used at a final concentration of 80 ug/ml. Substrates were added in equimolar ratios depending on the kinase being assayed and the direction of the reaction in serial dose responses, with the highest concentration of 5 μM. Proteins and substrates were incubated for 1 hr at room temperature, and ADP and ATP production were monitored using ADP-Glo and Kinase-Glo kits, respectively, according the manufacturer instructions (V6930 and V6711 Promega, USA). Luminescence was quantified using a SpectraMax Paradigm plate reader 30 min after the addition of substrate. Consistent with the MS results, ADK activity, as measured by generation of ATP, was specifically observed in samples pulled down with a-Ab but not c-Ab (FIG. 5A). […] To test this possibility, the ATP and ADP generating activity of recombinant ADK was assessed in the presence of the proposed complex components.

[4] = system: INS1 cells
Protocol: Cells were pre-treated with P2Y1 activator (0.5 nM; MRS2365 Tocris #2157) during the pre-incubation period. Cells were stimulated with ATP (5 μM; Promega #V915A) or ADP (2.5 μM; Promega #V916A) acutely with the addition of LG and HG KRB during the serial stimulation. Cells were treated with 100 ng/ml recombinant human FABP4 (produced in-house), 200 ng/ml recombinant human ADK (Novus Biologicals, product number NBP1-44382 or R&D Systems, product number 8024-AK-025), or 100 ng/ml recombinant human NDPK-A (Acro Biosystems, product number NM1-H5147) where indicated, for the pre-incubation period, as well as during the glucose stimulation.
Briefly, INS1 cells were plated in imaging disks at 5000 cells/dish and cultured in standard media overnight. Cells were washed with PBS, and incubated in imaging buffer without glucose, with or without calcium containing Fura-2 AM (2 mM; ThermoFisher F1201) for 30 minutes at 37° C. Cells were washed twice with fresh PBS, and placed in lml imaging buffer. Calcium flux was evaluated with the addition of 20 mM glucose, 30 mM KCl, or 1 μM Thapsigargin. Extracellular calcium was added at 1.5 mM. Calcium flux measurements were performed using an epifluorescence system coupled to a Ti-S/L100 inverted microscope L100 with fluorescent light source (X-Cite 120LED System) equipped with Lambda DG-4 Plus for UV ratiometric probes. Excitations at 340 nm and 380 nm were used and an emission of 510 nm. Analysis was performed using ImageJ software. Calcium flux was measured from 50 cells per coverslip.

T1 sequence (P15531 whole entry): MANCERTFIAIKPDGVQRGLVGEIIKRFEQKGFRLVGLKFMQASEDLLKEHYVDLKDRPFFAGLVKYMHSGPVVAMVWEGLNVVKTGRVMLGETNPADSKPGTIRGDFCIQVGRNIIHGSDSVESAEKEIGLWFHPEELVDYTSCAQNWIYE

B1: a-Ab: monoclonal antibody previously reported as CA33; heavy chain SEQ ID NO 446, light chain SEQ ID NO 447; binds FABP4 and NDPK (antibody, listed as Homo sapiens)
heavy: QSVEESGGRLVTPGTPLTLTCTVSGFSLSTYYMSWVRQAPGKGLEWIGIIYPSGSTYCASWAKGRFTISKASTTVDLKITSPTTEDTATYFCARPDNDGTSGYLSGFGLWGQGLVTVSSAKTTPPSVYPLAPGSAAQTNSMVTLGCLVKGYFPEPVTVTWNSGSLSSGVHTFPAVLQSDLYTLSSSVTVPSSTWPSETVTCNVAHPASSTKVDKKIVPRDC
light: DVVMTQTPASVSEPVGGTVTIKCGASEDISRYLVWYQQKPGQPPKRLIYKASTLASGVPSRFKGSGSGTDFTLTISDLECDDAATYYCQCTYGTYAGSFFYSFGGGTEVVVERTDAAPTVSIFPPSSEQLTSGGASVVCFLNNFYPKDINVKWKIDGSERQNGVLNSWTDQDSKDCTYSMSSTLTLTKDEYERHNSYTCEATHKTSTSPIVKSFNRNEC
- beta cell proliferation, Ki67 staining ([1]; DIO model, three weeks): small but significant increase
- CC3 positive beta cells ([1]; DIO model, vs controls): profound reduction
- glycemic excursion during glucose tolerance test (GTT) ([1]; WT DIO mice, 33 mg/kg twice weekly s.c.): improved
- 6 hr fasting glucose levels ([1]; WT DIO mice, 33 mg/kg twice weekly s.c., three weeks): reduced
- beta cell mass ([1]; pancreata of DIO mice, 3 weeks): trend towards increased
- number of islets ([1]; pancreata of DIO mice, 3 weeks): increased
- glucagon positive area ([1]; pancreatic sections, DIO mice): significant reduction
- ILN Cytotoxic T-Cells ([2]; inguinal lymph nodes): 21.4%
- Spleen Cytotoxic T-Cells [2]: 11.5%
- PLN Cytotoxic T-Cells ([2]; pancreatic lymph nodes): 15.7%
- ADP producing capacity of NDPK ([3]; in the presence of the complex components): rescued
- activity of NDPK to generate ADP ([3]; recombinant NDPK plus the added component): no effect
- ER calcium efflux [4]: rescue
